Laboratory results from PMC3823824.

Experiments:
Bcl-xL (recombinant) = Bcl-xL (recombinant) (UniProt Q07817); experiment: GST pull-down after kinase reaction; conditions: reference: GST-Beclin1-WT without Mst1; sites T108
[1] = biological target: Bcl-2 (mouse; recombinant, and endogenous in mouse heart) (UniProt P10417); experiment: GST pull-down after kinase reaction; conditions: sites T108

| Substance | binding against the reference (Bcl-xL (recombinant)) | binding against the reference ([1]; reference: GST-Beclin1-WT without Mst1) | binding against the reference ([1]; reference: GST-Beclin1-N2 without Mst1) |
| --- | --- | --- | --- |
| Beclin1 (recombinant GST-Beclin1; adenoviral Beclin1 constructs) (from UniProt Q14457) GST-Beclin1-WT treated with Mst1 and ATP | stronger | stronger | – |
| Beclin1 (recombinant GST-Beclin1; adenoviral Beclin1 constructs) Beclin1-N2, 72-163 (from UniProt Q14457) GST-Beclin1-N2 treated with Mst1 and ATP | – | – | stronger |
